Stoichiometry N data for one substance are collected here from publication PMC3281069.

The target in the test is E2 wild type, E2 subunit (acyltransferase component) of the pyruvate dehydrogenase complex of Geobacillus stearothermophilus (Geobacillus stearothermophilus) (UniProt P11961). Kind of test: SEC; E2wt on a Superdex200 gel filtration column in Solubility Buffer 2.2 (1x PBS, 50 mM L-glutamine, 50 mM NaCl, 250 mM L-arginine).

“E2 wild type, E2 subunit (acyltransferase component) of the pyruvate dehydrogenase complex of Geobacillus stearothermophilus (from UniProt P11961 1-428) (natural protein)” returned a stoichiometry N of 60.
